The results in this text go back to US20260216354A1, “ANTI-CMET ANTIBODY, ANTIBODY-DRUG CONJUGATE, AND PREPARATION METHOD THEREFOR AND USE THEREOF” (MEDILINK THERAPEUTICS (SUZHOU) CO., LTD., priority 2022, published 2026).

In test [1] the target is human c-Met on tumor cells (MKN45, NCI-H358, NCI-H69, LS1034, NCI-H716, MDA-MB-468) (human) (UniProt P08581). The experiment in a line: flow cytometry on LS1034 cells. (In general: A flow cytometer gives signals particle by particle.)
Test [2] addresses h.cMet-ECD-His (Human HGF R/c-MET Protein, His Tag, Acrobiosystems MET-H5227) (human) (UniProt P08581). Nature of the test: ELISA, h.cMet-ECD-His captured by anti-His-Rabbit Fc. On the technique in general: ELISA stands for enzyme-linked immunosorbent assay.
For test [3], the target named is human c-Met on tumor cells (MKN45, NCI-H358, NCI-H69, LS1034, NCI-H716, MDA-MB-468) (human) (UniProt P08581). The experiment in a line: flow cytometry on NCI-H358 cells.
Test [4] shares this target. Nature of the test: flow cytometry on NCI-H69 cells.
Test [5] shares this target. Nature of the test: flow cytometry on NCI-H716 cells.

human c-Met on tumor cells (MKN45, NCI-H358, NCI-H69, LS1034, NCI-H716, MDA-MB-468) (human), sequence (P08581 25-1390): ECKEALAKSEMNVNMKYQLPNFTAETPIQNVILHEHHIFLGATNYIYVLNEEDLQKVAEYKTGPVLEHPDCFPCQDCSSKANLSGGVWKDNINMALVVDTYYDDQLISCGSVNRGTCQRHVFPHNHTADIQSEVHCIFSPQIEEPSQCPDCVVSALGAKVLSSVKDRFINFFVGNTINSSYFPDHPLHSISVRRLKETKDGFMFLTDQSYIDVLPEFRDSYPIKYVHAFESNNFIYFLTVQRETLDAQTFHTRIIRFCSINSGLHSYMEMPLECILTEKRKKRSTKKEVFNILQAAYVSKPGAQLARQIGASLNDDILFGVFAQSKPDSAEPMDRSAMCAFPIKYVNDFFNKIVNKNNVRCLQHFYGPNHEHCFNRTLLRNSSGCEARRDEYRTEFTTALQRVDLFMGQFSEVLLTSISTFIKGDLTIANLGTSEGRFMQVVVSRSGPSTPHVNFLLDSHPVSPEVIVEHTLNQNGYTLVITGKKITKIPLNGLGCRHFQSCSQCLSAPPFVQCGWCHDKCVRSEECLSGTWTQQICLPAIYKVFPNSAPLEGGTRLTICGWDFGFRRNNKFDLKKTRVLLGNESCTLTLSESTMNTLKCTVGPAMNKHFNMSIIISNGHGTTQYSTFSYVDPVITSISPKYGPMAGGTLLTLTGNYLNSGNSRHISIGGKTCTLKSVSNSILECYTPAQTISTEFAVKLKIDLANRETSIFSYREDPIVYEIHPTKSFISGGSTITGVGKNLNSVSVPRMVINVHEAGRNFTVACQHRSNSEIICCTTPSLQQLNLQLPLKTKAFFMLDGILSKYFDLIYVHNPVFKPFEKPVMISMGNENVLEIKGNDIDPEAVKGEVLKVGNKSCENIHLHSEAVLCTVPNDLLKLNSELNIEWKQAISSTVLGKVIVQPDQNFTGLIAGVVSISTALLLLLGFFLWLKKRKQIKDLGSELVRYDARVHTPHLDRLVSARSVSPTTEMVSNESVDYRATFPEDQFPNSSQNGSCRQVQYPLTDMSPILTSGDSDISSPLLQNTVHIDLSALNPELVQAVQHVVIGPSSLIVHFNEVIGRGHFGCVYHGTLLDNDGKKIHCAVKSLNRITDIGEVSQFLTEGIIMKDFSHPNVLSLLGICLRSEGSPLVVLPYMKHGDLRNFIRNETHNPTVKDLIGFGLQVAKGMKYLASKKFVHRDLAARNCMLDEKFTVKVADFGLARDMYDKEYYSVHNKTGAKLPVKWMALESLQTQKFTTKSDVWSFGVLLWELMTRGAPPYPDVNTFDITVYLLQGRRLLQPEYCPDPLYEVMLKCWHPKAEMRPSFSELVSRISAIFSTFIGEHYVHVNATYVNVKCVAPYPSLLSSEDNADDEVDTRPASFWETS
h.cMet-ECD-His (Human HGF R/c-MET Protein, His Tag, Acrobiosystems MET-H5227) (human), sequence (P08581 25-932): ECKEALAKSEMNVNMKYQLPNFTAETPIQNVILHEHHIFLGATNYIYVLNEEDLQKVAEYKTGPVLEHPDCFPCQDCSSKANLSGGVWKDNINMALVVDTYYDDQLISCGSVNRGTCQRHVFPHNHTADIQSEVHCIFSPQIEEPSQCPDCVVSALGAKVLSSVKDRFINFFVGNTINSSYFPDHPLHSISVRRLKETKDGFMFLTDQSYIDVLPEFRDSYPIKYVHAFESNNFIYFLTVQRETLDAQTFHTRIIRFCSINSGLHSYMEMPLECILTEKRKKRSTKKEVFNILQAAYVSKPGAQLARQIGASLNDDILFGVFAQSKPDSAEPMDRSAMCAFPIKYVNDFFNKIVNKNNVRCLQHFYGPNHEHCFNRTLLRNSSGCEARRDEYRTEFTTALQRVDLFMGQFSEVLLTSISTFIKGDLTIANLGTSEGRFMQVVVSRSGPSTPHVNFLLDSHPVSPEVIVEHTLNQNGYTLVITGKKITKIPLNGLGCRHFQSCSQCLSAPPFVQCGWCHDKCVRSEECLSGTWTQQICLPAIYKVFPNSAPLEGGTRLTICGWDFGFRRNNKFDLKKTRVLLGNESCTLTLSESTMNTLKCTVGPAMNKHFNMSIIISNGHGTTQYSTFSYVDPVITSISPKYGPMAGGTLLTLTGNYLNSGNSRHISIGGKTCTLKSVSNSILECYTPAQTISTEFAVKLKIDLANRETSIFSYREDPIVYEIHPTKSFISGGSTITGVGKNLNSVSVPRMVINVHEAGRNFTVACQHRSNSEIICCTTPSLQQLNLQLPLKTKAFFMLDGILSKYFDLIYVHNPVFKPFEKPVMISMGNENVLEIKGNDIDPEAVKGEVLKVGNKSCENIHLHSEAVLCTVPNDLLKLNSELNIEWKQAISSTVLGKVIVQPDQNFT

B1: ABT700-vc-MMAE (DAR9.7) (antibody, INN chains, looked up, V domains shown)
VH: QVQLVQSGAEVKKPGASVKVSCKASGYIFTAYTMHWVRQAPGQGLEWMGWIKPNNGLANYAQKFQGRVTMTRDTSISTAYMELSRLRSDDTAVYYCARSEITTEFDYWGQGTLVTVSS
VL: DIVMTQSPDSLAVSLGERATINCKSSESVDSYANSFLHWYQQKPGQPPKLLIYRASTRESGVPDRFSGSGSGTDFTLTISSLQAEDVAVYYCQQSKEDPLTFGGGTKVEIK
modifications: vc-MMAE, DAR 9.7
As for B1, the 50% effective concentration (EC50) (commonly the concentration at which the effect is half-maximal) in test [1] worked out at 852 pM; in test [2], 2.43 µg/mL; in test [3], 917 pM; in test [4], 212 pM. Also, the Maximum signal value was 8960 in test [1], 32400 in test [3] and 8210 in test [4].

B2: ABT700-Vc-MMAE (DAR4) (antibody, INN chains, looked up, V domains shown)
VH: QVQLVQSGAEVKKPGASVKVSCKASGYIFTAYTMHWVRQAPGQGLEWMGWIKPNNGLANYAQKFQGRVTMTRDTSISTAYMELSRLRSDDTAVYYCARSEITTEFDYWGQGTLVTVSS
VL: DIVMTQSPDSLAVSLGERATINCKSSESVDSYANSFLHWYQQKPGQPPKLLIYRASTRESGVPDRFSGSGSGTDFTLTISSLQAEDVAVYYCQQSKEDPLTFGGGTKVEIK
modifications: vc-MMAE, DAR 4
Turning to B2, in test [5], the concentration for a half-maximal effect (EC50) came out at 11600 pM and the Maximum signal value amounted to 3740.
